Broadly, the EC50 is the midpoint of the concentration-response curve. Lower therefore signals greater potency. One may read the Kd as a measure of binding affinity in units of concentration. Read a high Kd as a looser complex. In general, IC50 refers to the concentration that inhibits the measured activity by half. Low values mean inhibition by little substance, high ones a need for much substance.

For assay [1], the target named is 全长人CTLA-4 on cells (293F stable line) (human) (UniProt P16410). Briefly: FACS on 293F cells expressing human CTLA-4.
Assay [2] has as its target 人CTLA-4.ECD-6xHis (human) (UniProt P16410). As to the kind of experiment: ELISA; human CTLA-4.ECD-6xHis coated at 1.0 μg/mL.
Assay [3] concerns the target 小鼠CTLA-4.ECD-6xHis (mouse) (UniProt P09793). As to the kind of experiment: ELISA; mouse CTLA-4.ECD-6xHis coated at 0.5 μg/mL.
In assay [4] the target is T1, 食蟹猴CTLA-4.ECD-6xHis (cynomolgus monkey) (UniProt G7PL88).
T1 sequence: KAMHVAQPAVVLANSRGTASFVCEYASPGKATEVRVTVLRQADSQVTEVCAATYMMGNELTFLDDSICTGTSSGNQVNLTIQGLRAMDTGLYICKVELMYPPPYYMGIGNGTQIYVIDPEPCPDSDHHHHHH
As to the kind of experiment: ELISA; cynomolgus CTLA-4.ECD-6xHis coated at 0.5 μg/mL. A general note: An ELISA detects its analyte on a solid surface through an enzyme-linked reagent.

The target of assay [5] is 小鼠CTLA-4.ECD-6xHis (mouse) (UniProt P09793). Briefly: SPR; antibody captured, mouse CTLA-4.ECD-6xHis as analyte, 1:1 fit. Background: Surface plasmon resonance follows binding to a sensor surface in real time, without labels.
The target in assay [6] is T1, 食蟹猴CTLA-4.ECD-6xHis (cynomolgus monkey). As to the kind of experiment: SPR; antibody captured, cynomolgus CTLA-4.ECD-6xHis as analyte, 1:1 fit.
For assay [7], the target named is 全长人CTLA-4 on cells (293F stable line) (human) (UniProt P16410). As to the kind of experiment: FACS affinity (modified Benedict method) on cells expressing human CTLA-4.
The target in assay [8] is 人CTLA-4.ECD.hFc (human) (UniProt P16410). As to the kind of experiment: competition ELISA; CTLA-4.ECD.hFc coated, competitor CD80-6xHis at 0.25 μg/mL.
The target is the same in assay [9]. Briefly: competition ELISA; CTLA-4.ECD.hFc coated, competitor CD86-6xHis at 0.25 μg/mL.
Assay [10] concerns the target 人CTLA-4.ECD-6xHis (human) (UniProt P16410). Briefly: SPR (Biacore T200); antibody captured on anti-human Fc, hCTLA-4.ECD-6xHis as analyte, 1:1 fit.
The target in assay [11] is 人CTLA-4.ECD.hFc (human) (UniProt P16410). As to the kind of experiment: FACS competition; biotinylated hCTLA-4.ECD.hFc on CD80-expressing CHO cells (competitor CD80).
The target is the same in assay [12]. Briefly: FACS competition; biotinylated hCTLA-4.ECD.hFc on CD86-expressing CHO cells (competitor CD86).

B1: W3162-1.146.19-z12-IgGk (antibody, from another filing, V domains shown)
VH: QVQLQESGPGLVKPSETLSLTCSVTYHTITSGYDWTWIRKPPGKGMEWIGYISYSGNTNYNPSLKSRVTISRDTSKNQFFLKLSSVTAADTAVYYCASMMVPHYYVMDAWGQGTLVTVSS
VL: DIVMTQTPLSLSVTPGQPASISCRSSQSLLNSDGNTYLYWYLQKPGQSPQLLIYLVSKLGSGVPNRFSGSGSGTDFTLKISRVEAEDVGVYYCVQGTHDPWTFGGGTKVEIK
With B1, the EC50 in [1] was 1580 pM; in assay [2] it was 30 pM; in assay [3], 190 pM; in assay [4] it was 50 pM. In addition, the dissociation constant Kd in [5] is 1390 pM; in assay [6], 1920 pM; in [7] it was 5050 pM; in [10], 477 pM. The IC50 with 人CTLA-4.ECD.hFc (human) [8] came out at 870 pM; with 人CTLA-4.ECD.hFc (human) [9] it was 710 pM; in the assay with 人CTLA-4.ECD.hFc (human) [11], 6600 pM; with 人CTLA-4.ECD.hFc (human) [12] it was 5150 pM. Besides, the percent of CTLA-4 binding blocked at the highest concentration stood at 71% with 人CTLA-4.ECD.hFc (human) [11] and 73% with 人CTLA-4.ECD.hFc (human) [12].

B2: W3162-1.154.8-z35-IgGk (antibody, from another filing, V domains shown)
VH: QVQLVQSGAEVKKPGSSVKVSCKASGYTFTNYFMNWVRQAPGQGLEWMGRVDPEQGRADYAEKFKKRVTITADKSTSTAYMELSSLRSEDTAVYYCARRAMDNYGFAYWGQGTLVTVSS
VL: EIVLTQSPDFQSVTPKEKVTITCSANSALSYMYWYQQKPDQSPKLWVHGTSNLASGVPSRFSGSGSGTDFTLTINSLEAEDAATYYCHHWSNTQWTFGGGTKVEIK
As to B2, the results for the EC50 in assay [1], in [2] and in [4] were 660 pM, 40 pM and 50 pM, respectively. For the same molecule, the Kd came to 131 pM in assay [6], 350 pM in assay [7] and 96.8 pM in assay [10]. In addition, the 50% inhibitory concentration (IC50) is 630 pM in the assay with 人CTLA-4.ECD.hFc (human) [8], 500 pM with 人CTLA-4.ECD.hFc (human) [9], 70 pM with 人CTLA-4.ECD.hFc (human) [11] and 280 pM in the assay with 人CTLA-4.ECD.hFc (human) [12]. Besides, the percent of CTLA-4 binding blocked at the highest concentration in the assay with 人CTLA-4.ECD.hFc (human) [11] was 89%; with 人CTLA-4.ECD.hFc (human) [12] it was 98%.

For the origin of these results see patent CN108948194A.
